{
  "source": "paper PMC11652679",
  "target": "Mayaro virus E1-E2 heterodimer on the VLP (Mayaro virus) (UniProt Q8QZ72)",
  "assay": "cryo-EM structure; single-particle averaging with icosahedral (I1) reconstruction of purified MAYV VLPs, ~1-2 mg/mL in STE buffer, vitrified at 4 °C; final resolution 4.5 Å",
  "data": [
    {"substance": "Mayaro virus E1-E2 heterodimer on the VLP (from UniProt Q8QZ72 807-1242) (complex)", "values": [
      {"measurement": "stoichiometry N", "value": 3}
    ]}
  ]
}
